From paper PMC9974095, “TP63 gain-of-function mutations cause premature ovarian insufficiency by inducing oocyte apoptosis” (The Journal of Clinical Investigation, 2023)
Numbering of substitutions follows the chain as printed. Names and notes keep the numbering of the source. Values joined by “and” are separate entries in the source; they are usually repeats but may differ in a detail not shown here. Equal values may be shown once.

B1: TAp63α p.R594* (domain or fragment, human, UniProt Q9H3D4-1 1-593, looked up)
chain: MNFETSRCATLQYCPDPYIQRFVETPAHFSWKESYYRSTMSQSTQTNEFLSPEVFQHIWDFLEQPICSVQPIDLNFVDEPSEDGATNKIEISMDCIRMQDSDLSDPMWPQYTNLGLLNSMDQQIQNGSSSTSPYNTDHAQNSVTAPSPYAQPSSTFDALSPSPAIPSNTDYPGPHSFDVSFQQSSTAKSATWTYSTELKKLYCQIAKTCPIQIKVMTPPPQGAVIRAMPVYKKAEHVTEVVKRCPNHELSREFNEGQIAPPSHLIRVEGNSHAQYVEDPITGRQSVLVPYEPPQVGTEFTTVLYNFMCNSSCVGGMNRRPILIIVTLETRDGQVLGRRCFEARICACPGRDRKADEDSIRKQQVSDSTKNGDGTKRPFRQNTHGIQMTSIKKRRSPDDELLYLPVRGRETYEMLLKIKESLELMQYLPQHTIETYRQQQQQQHQHLLQKQTSIQSPSSYGNSSPPLNKMNSMNKLPSVSQLINPQQRNALTPTTIPDGMGANIPMMGTHMPMAGDMNGLSPTQALPPPLSMPSTSHCTPPPPYPTDCSIVSFLARLGCSSCLDYFTTQGLTTIYQIEHYSMDDLASLKIPEQF
notes: human TAp63α with the nonsense variant p.R594* (stop at codon 594, in the SAM domain; truncates the protein prior to the TID), numbered on NM_003722.5; Nonsense variant found in a patient with POI; lacks the TID; source: SAOS-2, transfected, MG132-treated, in lysate
B2: TAp63α (human TP63), wild type (natural protein, UniProt Q9H3D4-1 1-680, looked up)
chain: MNFETSRCATLQYCPDPYIQRFVETPAHFSWKESYYRSTMSQSTQTNEFLSPEVFQHIWDFLEQPICSVQPIDLNFVDEPSEDGATNKIEISMDCIRMQDSDLSDPMWPQYTNLGLLNSMDQQIQNGSSSTSPYNTDHAQNSVTAPSPYAQPSSTFDALSPSPAIPSNTDYPGPHSFDVSFQQSSTAKSATWTYSTELKKLYCQIAKTCPIQIKVMTPPPQGAVIRAMPVYKKAEHVTEVVKRCPNHELSREFNEGQIAPPSHLIRVEGNSHAQYVEDPITGRQSVLVPYEPPQVGTEFTTVLYNFMCNSSCVGGMNRRPILIIVTLETRDGQVLGRRCFEARICACPGRDRKADEDSIRKQQVSDSTKNGDGTKRPFRQNTHGIQMTSIKKRRSPDDELLYLPVRGRETYEMLLKIKESLELMQYLPQHTIETYRQQQQQQHQHLLQKQTSIQSPSSYGNSSPPLNKMNSMNKLPSVSQLINPQQRNALTPTTIPDGMGANIPMMGTHMPMAGDMNGLSPTQALPPPLSMPSTSHCTPPPPYPTDCSIVSFLARLGCSSCLDYFTTQGLTTIYQIEHYSMDDLASLKIPEQFRHAIWKGILDHRQLHEFSSPSHLLRTPSSASTVSVGSSETRGERVIDAVRFTLRQTISFPPRDEWNDFNFDMDARRNKQQRIKEEGE
notes: human p63, isoform TAp63α; variants are numbered on NM_003722.5; also called WT TAp63α; source: SAOS-2, transfected (pcDNA3.1-TP63), MG132-treated, in lysate
B3: TAp63α p.T538A (natural protein, human, UniProt Q9H3D4-1 1-680, looked up)
chain: B2 chain with T538A
notes: human TAp63α with the patient variant p.T538A, numbered on NM_003722.5; made from pcDNA3.1-TP63 by site-directed mutagenesis; Variant found in a patient with POI; source: SAOS-2, transfected, MG132-treated, in lysate
B4: TAp63α p.R647C (natural protein, human, UniProt Q9H3D4-1 1-680, looked up)
chain: B2 chain with R647C
notes: Variant found in three patients with POI; source: SAOS-2, transfected, MG132-treated, in lysate
B5: TAp63α p.T567I (natural protein, human, UniProt Q9H3D4-1 1-680, looked up)
chain: B2 chain with T567I
notes: human TAp63α with the patient variant p.T567I (SAM domain), numbered on NM_003722.5; made from pcDNA3.1-TP63 by site-directed mutagenesis; Variant found in a patient with POI; source: SAOS-2, transfected, MG132-treated, in lysate
B6: TAp63α p.L646P (natural protein, human, UniProt Q9H3D4-1 1-680, looked up)
chain: B2 chain with L646P
notes: Variant found in a patient with POI; source: SAOS-2, transfected, MG132-treated, in lysate
B7: TAp63α p.R643Q (natural protein, human, UniProt Q9H3D4-1 1-680, looked up)
chain: B2 chain with R643Q
notes: as for B6
B8: TAp63α p.R655Q (natural protein, human, UniProt Q9H3D4-1 1-680, looked up)
chain: B2 chain with R655Q
notes: as for B6
B9: TAp63α p.S285N (natural protein, human, UniProt Q9H3D4-1 1-680, looked up)
chain: B2 chain with S285N
notes: made from pcDNA3.1-TP63 by site-directed mutagenesis; Variant found in a patient with POI; source: SAOS-2, transfected, MG132-treated, in lysate
B10: mouse p63ΔTID (domain or fragment, UniProt O88898-1 1-609, looked up)
chain: MNFETSRCATLQYCPDPYIQRFIETPAHFSWKESYYRSAMSQSTQTSEFLSPEVFQHIWDFLEQPICSVQPIELNFVDEPSENGATNKIEISMDCIRMQDSDLSDPMWPQYTNLGLLNSMDQQIQNGSSSTSPYNTDHAQNSVTAPSPYAQPSSTFDALSPSPAIPSNTDYPGPHSFDVSFQQSSTAKSATWTYSTELKKLYCQIAKTCPIQIKVMTPPPQGAVIRAMPVYKKAEHVTEVVKRCPNHELSREFNEGQIAPPSHLIRVEGNSHAQYVEDPITGRQSVLVPYEPPQVGTEFTTVLYNFMCNSSCVGGMNRRPILIIVTLETRDGQVLGRRCFEARICACPGRDRKADEDSIRKQQVSDSAKNGDGTKRPFRQNTHGIQMTSIKKRRSPDDELLYLPVRGRETYEMLLKIKESLELMQYLPQHTIETYRQQQQQQHQHLLQKQTSMQSQSSYGNSSPPLNKMNSMNKLPSVSQLINPQQRNALTPTTMPEGMGANIPMMGTHMPMAGDMNGLSPTQALPPPLSMPSTSHCTPPPPYPTDCSIVSFLARLGCSSCLDYFTTQGLTTIYQIEHYSMDDLASLKIPEQFRHAIWKGILDHRQLHD
notes: mouse p63 (TAp63α) without the TID; the mouse allele of the same name carries c.1828_1829insGA (p.F610*, NM_001127259.1), a stop codon prior to the TID; also called mutant p63ΔTID

Assays:
TAp63αΔTID = test: co-IP (anti-p63 IP, GFP Western blot, quantified); conditions: HEK293 cells cotransfected with TAp63αΔTID and GFP-TID plasmids; 3 independent experiments; parent: est. 6.4; read off a plot
[1] = target: TAp63α p.Q568fs*3 (human) (UniProt Q9H3D4); test: native gel or EMSA; BN-PAGE (NativePAGE 3%-12% Bis-Tris) of lysates of transfected SAOS-2 cells treated with 10 uM MG132 for 12 h; blot with anti-p63
[2] = target: the molecule itself; test: as above

Molecule	stoichiometry N [2]	other results
GFP-TID, wild type R655Q		response (TAp63αΔTID): 2.8 % Input
GFP-TID, wild type L646P		response (TAp63αΔTID): 0.58 % Input
TAp63α p.Q568fs*3 (from UniProt Q9H3D4-1 1-567) (domain or fragment)		stoichiometry N [1]: 4
GFP-TID, wild type R643Q		response (TAp63αΔTID): 2.4 % Input
GFP-TID, wild type R647C		response (TAp63αΔTID): 3.5 % Input
B1	4	
B2	2	
B3	2	
B4	4	
B5	2	
B6	4	
B7	4	
B8	4 and 2	
B9	2	
B10	4	
